Fold diff data for one molecule are collected here from patent US20220332804A1 (CSL INNOVATION, published 2022).

What all share (assay): SPR, KD relative to WT C2;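 also: biacore SPR at 37 °C, anti-C2 mAbs captured on anti-human IgG chips with alanine or serine point mutants of C2 as analyte, KD from 1:1 fit compared with wild-type C2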
(Surface plasmon resonance follows binding to a sensor surface in real time, without labels.)

The target of experiment [1] is T1, human C2 A444S (human, UniProt P06681 21-752).
T1 sequence: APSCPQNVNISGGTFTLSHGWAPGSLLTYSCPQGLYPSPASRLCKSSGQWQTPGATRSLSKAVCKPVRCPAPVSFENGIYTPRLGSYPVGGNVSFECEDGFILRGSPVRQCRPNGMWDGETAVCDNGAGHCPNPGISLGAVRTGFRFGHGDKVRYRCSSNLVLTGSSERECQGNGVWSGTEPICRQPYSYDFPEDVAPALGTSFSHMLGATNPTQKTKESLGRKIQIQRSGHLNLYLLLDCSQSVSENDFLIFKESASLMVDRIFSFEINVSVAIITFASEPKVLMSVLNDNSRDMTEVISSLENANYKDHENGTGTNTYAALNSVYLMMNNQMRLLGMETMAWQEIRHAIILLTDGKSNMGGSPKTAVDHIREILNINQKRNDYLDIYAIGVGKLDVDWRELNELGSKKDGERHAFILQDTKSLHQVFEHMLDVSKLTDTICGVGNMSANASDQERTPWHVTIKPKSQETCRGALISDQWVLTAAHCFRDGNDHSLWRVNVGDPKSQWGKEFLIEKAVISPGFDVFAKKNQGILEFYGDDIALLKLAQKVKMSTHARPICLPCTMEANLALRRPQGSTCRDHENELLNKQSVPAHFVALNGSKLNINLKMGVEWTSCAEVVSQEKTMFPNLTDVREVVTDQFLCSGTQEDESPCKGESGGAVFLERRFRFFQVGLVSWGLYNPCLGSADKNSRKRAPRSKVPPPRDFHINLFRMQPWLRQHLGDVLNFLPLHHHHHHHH

Experiment [2] concerns the target T2, human C2 D454A (human, UniProt P06681 21-752).
T2 sequence: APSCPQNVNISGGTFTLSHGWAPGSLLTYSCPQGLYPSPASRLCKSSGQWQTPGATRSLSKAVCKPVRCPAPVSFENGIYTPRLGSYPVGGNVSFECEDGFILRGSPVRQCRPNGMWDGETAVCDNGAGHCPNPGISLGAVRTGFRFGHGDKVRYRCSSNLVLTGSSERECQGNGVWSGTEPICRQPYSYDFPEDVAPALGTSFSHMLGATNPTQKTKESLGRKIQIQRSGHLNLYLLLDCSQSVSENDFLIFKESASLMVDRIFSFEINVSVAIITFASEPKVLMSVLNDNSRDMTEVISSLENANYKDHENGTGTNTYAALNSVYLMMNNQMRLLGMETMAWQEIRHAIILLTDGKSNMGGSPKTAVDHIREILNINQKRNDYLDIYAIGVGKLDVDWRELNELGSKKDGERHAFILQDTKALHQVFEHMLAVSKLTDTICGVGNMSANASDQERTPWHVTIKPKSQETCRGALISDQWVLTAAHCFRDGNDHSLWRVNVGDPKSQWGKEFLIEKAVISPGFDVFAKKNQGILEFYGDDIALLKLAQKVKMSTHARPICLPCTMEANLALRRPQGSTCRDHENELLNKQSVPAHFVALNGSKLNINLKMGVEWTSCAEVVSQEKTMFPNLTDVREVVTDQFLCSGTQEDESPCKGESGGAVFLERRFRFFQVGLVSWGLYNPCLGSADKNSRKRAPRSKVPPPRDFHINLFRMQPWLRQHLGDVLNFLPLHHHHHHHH

Experiment [3] concerns the target T3, human C2 S473A (human, UniProt P06681 21-752).
T3 sequence: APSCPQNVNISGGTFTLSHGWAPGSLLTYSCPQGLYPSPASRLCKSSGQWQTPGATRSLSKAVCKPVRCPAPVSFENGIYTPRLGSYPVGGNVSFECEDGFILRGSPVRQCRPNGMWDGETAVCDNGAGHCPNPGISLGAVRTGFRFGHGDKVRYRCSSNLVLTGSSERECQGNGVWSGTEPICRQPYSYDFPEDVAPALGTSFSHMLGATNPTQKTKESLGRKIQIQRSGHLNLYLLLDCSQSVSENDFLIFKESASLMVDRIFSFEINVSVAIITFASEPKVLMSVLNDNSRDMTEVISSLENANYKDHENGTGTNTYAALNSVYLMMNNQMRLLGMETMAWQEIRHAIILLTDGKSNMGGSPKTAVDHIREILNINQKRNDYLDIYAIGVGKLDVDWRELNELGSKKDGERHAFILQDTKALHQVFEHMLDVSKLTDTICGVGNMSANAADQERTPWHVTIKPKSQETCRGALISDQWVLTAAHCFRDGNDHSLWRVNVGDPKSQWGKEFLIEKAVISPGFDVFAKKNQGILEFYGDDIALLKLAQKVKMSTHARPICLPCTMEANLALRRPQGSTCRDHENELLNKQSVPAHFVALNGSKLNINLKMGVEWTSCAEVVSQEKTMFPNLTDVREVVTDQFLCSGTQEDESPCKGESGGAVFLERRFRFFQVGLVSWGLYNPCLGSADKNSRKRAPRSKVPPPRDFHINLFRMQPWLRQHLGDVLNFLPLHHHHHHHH

Experiment [4] has as its target T4, human C2 S428A (human, UniProt P06681 21-752).
T4 sequence: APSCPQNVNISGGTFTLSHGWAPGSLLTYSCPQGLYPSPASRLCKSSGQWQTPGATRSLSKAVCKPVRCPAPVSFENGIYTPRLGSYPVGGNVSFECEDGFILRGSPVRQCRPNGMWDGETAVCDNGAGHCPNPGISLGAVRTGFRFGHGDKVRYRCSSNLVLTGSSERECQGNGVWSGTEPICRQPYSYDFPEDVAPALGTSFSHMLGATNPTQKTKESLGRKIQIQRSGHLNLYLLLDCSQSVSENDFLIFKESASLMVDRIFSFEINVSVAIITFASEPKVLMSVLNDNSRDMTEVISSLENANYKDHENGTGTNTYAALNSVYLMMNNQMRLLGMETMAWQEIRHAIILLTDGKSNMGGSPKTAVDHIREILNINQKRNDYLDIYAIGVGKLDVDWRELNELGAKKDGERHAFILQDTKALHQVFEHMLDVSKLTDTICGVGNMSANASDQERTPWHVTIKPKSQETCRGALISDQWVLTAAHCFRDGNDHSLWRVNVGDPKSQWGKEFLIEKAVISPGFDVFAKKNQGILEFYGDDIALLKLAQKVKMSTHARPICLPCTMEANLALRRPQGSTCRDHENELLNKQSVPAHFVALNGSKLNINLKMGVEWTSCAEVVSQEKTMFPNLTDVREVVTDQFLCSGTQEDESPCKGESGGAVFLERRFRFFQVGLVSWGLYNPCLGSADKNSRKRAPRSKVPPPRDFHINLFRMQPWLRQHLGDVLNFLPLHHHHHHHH

B1: RF16-242 (antibody, human IgG4 S228P, lambda, V domains shown)
VH: EVQLLQSGAEVKKPGESLKISCKGSGYSFTSYWIGWVRQMPGKGLEWMGIIYPGDSDTRYSPSFQGQVTISADKSISTAYLQWSSLKASDTAMYYCARRGHYGDYFDYWGQGTLVTVSS
VL: SYELTQPPSVSVSPGQTARITCSGDALPKKYAYWYHQKSGQAPVLVIYEDRRRPSEIPERFSGSSSGTMATLTITGAQVEDEGVYFCYSRDRAGNQRVFGGGTQLTVLG
notes: pH-dependent anti-C2 antibody from a phage display library
In the case of B1, the Fold diff was 3 fold in experiment [1], 5 fold in experiment [2], 2 fold in experiment [3] and 3 fold in experiment [4].
